Test results as given in patent US20260098070A1 (DEM BIOPHARMA, published 2026).
No end group written: not given here. *: point of attachment. Biotin = O=C1N[C@H]2[C@H](CS[C@H]2CCCCC(=O)*)N1

T1: CD177 ECD-Fc (CD177 extracellular domain with Fc tag) (UniProt Q8N6Q3 22-408, limits assumed)
T1 construct: extracellular domain; also called CD177-Fc; recombinant CD177 ECD; not shown: Fc tag
T1 sequence (looked up): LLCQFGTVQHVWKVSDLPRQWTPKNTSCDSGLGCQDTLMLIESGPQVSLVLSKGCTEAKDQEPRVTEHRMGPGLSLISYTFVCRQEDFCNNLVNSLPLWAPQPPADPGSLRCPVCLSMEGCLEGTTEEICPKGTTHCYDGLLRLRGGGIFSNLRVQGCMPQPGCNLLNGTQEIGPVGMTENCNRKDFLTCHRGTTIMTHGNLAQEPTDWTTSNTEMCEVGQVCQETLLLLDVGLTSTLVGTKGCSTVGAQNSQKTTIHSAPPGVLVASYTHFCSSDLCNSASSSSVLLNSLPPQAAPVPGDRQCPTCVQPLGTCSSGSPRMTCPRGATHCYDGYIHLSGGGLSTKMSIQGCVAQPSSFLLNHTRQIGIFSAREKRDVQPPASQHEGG

B1: aglycosylated scrambled hSMAGP ECD peptide (peptide)
peptide: TRTTLIMESTTPALMLLEPLGSPQDAPTSTEEAPSLK(Biotin)-NH2
modifications: N-terminus assumed
SMILES: CC[C@H](C)[C@H](NC(=O)[C@H](CC(C)C)NC(=O)[C@@H](NC(=O)[C@@H](NC(=O)[C@H](CCCNC(=N)N)NC(=O)[C@@H](N)[C@@H](C)O)[C@@H](C)O)[C@@H](C)O)C(=O)N[C@@H](CCSC)C(=O)N[C@@H](CCC(=O)O)C(=O)N[C@@H](CO)C(=O)N[C@H](C(=O)N[C@H](C(=O)N1CCC[C@H]1C(=O)N[C@@H](C)C(=O)N[C@@H](CC(C)C)C(=O)N[C@@H](CCSC)C(=O)N[C@@H](CC(C)C)C(=O)N[C@@H](CC(C)C)C(=O)N[C@@H](CCC(=O)O)C(=O)N1CCC[C@H]1C(=O)N[C@@H](CC(C)C)C(=O)NCC(=O)N[C@@H](CO)C(=O)N1CCC[C@H]1C(=O)N[C@@H](CCC(N)=O)C(=O)N[C@@H](CC(=O)O)C(=O)N[C@@H](C)C(=O)N1CCC[C@H]1C(=O)N[C@H](C(=O)N[C@@H](CO)C(=O)N[C@H](C(=O)N[C@@H](CCC(=O)O)C(=O)N[C@@H](CCC(=O)O)C(=O)N[C@@H](C)C(=O)N1CCC[C@H]1C(=O)N[C@@H](CO)C(=O)N[C@@H](CC(C)C)C(=O)N[C@@H](CCCCNC(=O)CCCC[C@@H]1SC[C@@H]2NC(=O)N[C@@H]21)C(N)=O)[C@@H](C)O)[C@@H](C)O)[C@@H](C)O)[C@@H](C)O
notes: Pre-incubated with HRP-conjugated streptavidin before addition to the plates; also called scrambled control

Experiments:
[1] = molecular target: CLEC10A expressed on transfected HEK293 cells (human) (UniProt Q8IUN9); assay: flow cytometry, live HEK293 transfectants, 5 µg/mL probe in PBS+Ca2+/Mg2+, AF647 anti-human Fc
Chain of CLEC10A expressed on transfected HEK293 cells (human) (Q8IUN9 whole entry, the tested form may be a part): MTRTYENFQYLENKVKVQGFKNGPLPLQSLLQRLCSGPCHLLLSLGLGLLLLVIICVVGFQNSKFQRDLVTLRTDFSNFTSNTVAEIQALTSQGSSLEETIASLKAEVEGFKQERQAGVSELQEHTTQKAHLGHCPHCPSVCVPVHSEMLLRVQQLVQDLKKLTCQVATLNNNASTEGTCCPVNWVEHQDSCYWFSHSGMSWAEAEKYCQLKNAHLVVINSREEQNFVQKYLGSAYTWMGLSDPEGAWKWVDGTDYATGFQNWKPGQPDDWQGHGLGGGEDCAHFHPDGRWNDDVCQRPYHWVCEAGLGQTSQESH

[2] = molecular target: T1, CD177 ECD-Fc (CD177 extracellular …); assay: ELISA, immobilized CD177 ECD-Fc, biotinylated peptide pre-incubated with HRP-streptavidin
Method: To evaluate the binding of aglycosylated hSMAGP ECD to CD177, an hSMAGP ECD peptide (H2N-[…]-Biotin-amide (SEQ ID NO: 62)) was chemically synthesized. An extra lysine residue was added to the C terminus to facilitate biotinylation. Another peptide, with a scrambled hSMAGP ECD sequence (H2N-[…]-Biotin-amide (SEQ ID NO: 63)), was synthesized as a control. Peptide binding to the recombinant CD177 ECD-Fc (CD177 extracellular domain with Fc tag) or hIgG1-Fc (IgG1 domain with Fc tag) negative control was evaluated in an enzyme-linked immunosorbent assay (ELISA). CD177 ECD-Fc and hIgG1-Fc were immobilized to separate Corning 96-well Clear Flat Bottom Polystyrene High Bind Microplates at 4° C. overnight in PBS. Plates were blocked using 5% skim milk. Biotinylated hSMAGP ECD peptide or the scrambled control (10 μg/ml) was pre-incubated with HRP-conjugated streptavidin (5 μg/ml) and added to the plates. In a control assay, an anti-CD177 antibody (Biolegend Cat #315802; 10 μg/ml) was premixed with the biotinylated SMAGP ECD peptide. The signal was developed using TMB substrate. The assay was performed in triplicate.

| Molecule | fold change in median fluorescence intensity over control cells [1] | binding result [2] |
| --- | --- | --- |
| hSMAGP ECD-hIgG1 Fc (Fc fusion) | 3.3 fold | – |
| B1 | – | no binding (tested: 10 µg/ml) |
